# Laboratory results from the supplement of paper PMC9112550, “Optimization of the antimicrobial peptide Bac7 by deep mutational scanning” (BMC Biology, 2022).
# Tested on: Escherichia coli TOP10
# Assay: shrunken log2 fold change of peptide-encoding DNA abundance (4.5 h post-induction vs induction); higher = less antimicrobial activity (less host growth inhibition)
# Conditions: time post-induction: 4.5 h; library: site-saturation at positions 5, 18, 19, 20
# 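Also: peptides expressed intracellularly from a pBAD plasmid library in pooled LB shake-flask culture, induced with 0.3% L-arabinose, DNA abundance read by NGS, three biological replicates, DESeq2 with apeglm shrinkage.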
row,Sequence,shrunken log2 fold change
1,RRIRIRPPRLPRPRPRPEHWPRP,0.168
2,RRIRYRPPRLPRPRPRPNEQPRP,0.0039
3,RRIRLRPPRLPRPRPRPIPTPRP,-0.105
4,RRIRKRPPRLPRPRPRPNPSPRP,0.108
5,RRIRDRPPRLPRPRPRPQRDPRP,0.0917
6,RRIRMRPPRLPRPRPRPIMPPRP,0.0288
7,RRIRRRPPRLPRPRPRPPEDPRP,1.34
8,RRIRHRPPRLPRPRPRPCVCPRP,0.0978
9,RRIRNRPPRLPRPRPRPEAEPRP,0.497
10,RRIRPRPPRLPRPRPRPTILPRP,-0.104
11,RRIRQRPPRLPRPRPRPLEIPRP,-0.106
12,RRIRGRPPRLPRPRPRPWSWPRP,1.1
13,RRIRPRPPRLPRPRPRPDLMPRP,0.303
14,RRIRDRPPRLPRPRPRPAPPPRP,0.71
15,RRIRARPPRLPRPRPRPGDHPRP,0.114
16,RRIRYRPPRLPRPRPRPYSYPRP,-0.395
17,RRIRKRPPRLPRPRPRPYDFPRP,0.176
18,RRIRMRPPRLPRPRPRPEPMPRP,0.386
19,RRIRGRPPRLPRPRPRPMREPRP,-0.00527
20,RRIRRRPPRLPRPRPRPLIFPRP,-0.00389
21,RRIRPRPPRLPRPRPRPKIAPRP,-0.1
22,RRIRSRPPRLPRPRPRPPIFPRP,-0.576
23,RRIRTRPPRLPRPRPRPIGPPRP,0.0411
24,RRIRTRPPRLPRPRPRPFINPRP,-0.161
25,RRIRNRPPRLPRPRPRPCTCPRP,-0.0075

row,Sequence,shrunken log2 fold change
1,RRIRYRPPRLPRPRPRPAWRPRP,0.0762
2,RRIRCRPPRLPRPRPRPTPKPRP,0.877
3,RRIRVRPPRLPRPRPRPTPRPRP,0.859
4,RRIRNRPPRLPRPRPRPWLYPRP,-0.00103
5,RRIRFRPPRLPRPRPRPGGLPRP,0.217
6,RRIRERPPRLPRPRPRPIKNPRP,-1.13
7,RRIRYRPPRLPRPRPRPQDTPRP,-0.547
8,RRIRCRPPRLPRPRPRPCSNPRP,-0.274
9,RRIRPRPPRLPRPRPRPSQAPRP,0.106
10,RRIRWRPPRLPRPRPRPYVKPRP,-0.436
11,RRIRLRPPRLPRPRPRPARCPRP,0.651
12,RRIRPRPPRLPRPRPRPGNIPRP,-0.000778
13,RRIRWRPPRLPRPRPRPLPWPRP,0.244
14,RRIRERPPRLPRPRPRPFYIPRP,-0.5
15,RRIRARPPRLPRPRPRPNFGPRP,0.324
16,RRIRIRPPRLPRPRPRPSNFPRP,-0.335
17,RRIRWRPPRLPRPRPRPLTKPRP,0.23
18,RRIRQRPPRLPRPRPRPQTKPRP,-0.133
19,RRIRQRPPRLPRPRPRPGPPPRP,0.462
20,RRIRPRPPRLPRPRPRPKCEPRP,-0.187
21,RRIRHRPPRLPRPRPRPREAPRP,-0.0215
22,RRIRFRPPRLPRPRPRPQAIPRP,0.043
23,RRIRNRPPRLPRPRPRPLDQPRP,-0.266
24,RRIRSRPPRLPRPRPRPKLVPRP,-0.0443
25,RRIRCRPPRLPRPRPRPCKYPRP,-0.227

row,Sequence,shrunken log2 fold change
1,RRIRFRPPRLPRPRPRPFQRPRP,0.0192
2,RRIRWRPPRLPRPRPRPQNIPRP,-0.882
3,RRIRPRPPRLPRPRPRPHYKPRP,-0.874
4,RRIRKRPPRLPRPRPRPKGDPRP,-0.0351
5,RRIRWRPPRLPRPRPRPPFLPRP,0.26
6,RRIRVRPPRLPRPRPRPTTNPRP,0.0416
7,RRIRPRPPRLPRPRPRPEDAPRP,0.0442
8,RRIRHRPPRLPRPRPRPEGEPRP,0.0139
9,RRIRNRPPRLPRPRPRPVCDPRP,0.0842
10,RRIRYRPPRLPRPRPRPDYPPRP,-0.14
11,RRIRGRPPRLPRPRPRPIAYPRP,0.117
12,RRIRHRPPRLPRPRPRPEWNPRP,-0.294
13,RRIRTRPPRLPRPRPRPMVVPRP,0.0636
14,RRIRKRPPRLPRPRPRPQKGPRP,-0.0581
15,RRIRARPPRLPRPRPRPMNQPRP,-0.135
16,RRIRKRPPRLPRPRPRPYYFPRP,-0.234
17,RRIRARPPRLPRPRPRPTECPRP,0.0171
18,RRIRTRPPRLPRPRPRPVRCPRP,0.382
19,RRIRCRPPRLPRPRPRPKSKPRP,-0.338
20,RRIRWRPPRLPRPRPRPYVHPRP,-1.18
21,RRIRHRPPRLPRPRPRPEFSPRP,-0.246
22,RRIRCRPPRLPRPRPRPACRPRP,0.128
23,RRIRIRPPRLPRPRPRPFGAPRP,-0.143
24,RRIRKRPPRLPRPRPRPKRAPRP,1.04
25,RRIRTRPPRLPRPRPRPVGAPRP,0.327

row,Sequence,shrunken log2 fold change
1,RRIRCRPPRLPRPRPRPENCPRP,0.0153
2,RRIRHRPPRLPRPRPRPQKCPRP,-0.0302
3,RRIRRRPPRLPRPRPRPFRDPRP,0.506
4,RRIRIRPPRLPRPRPRPAARPRP,0.278
5,RRIRRRPPRLPRPRPRPTESPRP,0.121
6,RRIRERPPRLPRPRPRPVEKPRP,-0.0163
7,RRIRRRPPRLPRPRPRPELNPRP,0.312
8,RRIRPRPPRLPRPRPRPTVWPRP,0.747
9,RRIRGRPPRLPRPRPRPFTPPRP,0.0836
10,RRIRRRPPRLPRPRPRPQDAPRP,0.427
11,RRIRQRPPRLPRPRPRPQCLPRP,-0.122
12,RRIRQRPPRLPRPRPRPAHVPRP,-0.139
13,RRIRKRPPRLPRPRPRPAGTPRP,0.992
14,RRIRSRPPRLPRPRPRPENYPRP,-0.127
15,RRIRHRPPRLPRPRPRPQWFPRP,-0.0606
16,RRIRARPPRLPRPRPRPGNLPRP,-0.232
17,RRIRTRPPRLPRPRPRPHRNPRP,-0.677
18,RRIRLRPPRLPRPRPRPPHIPRP,0.0882
19,RRIRGRPPRLPRPRPRPDHHPRP,-0.0187
20,RRIRTRPPRLPRPRPRPWHYPRP,-0.268
21,RRIRKRPPRLPRPRPRPKHMPRP,0.03
22,RRIRDRPPRLPRPRPRPAQWPRP,0.395
23,RRIRHRPPRLPRPRPRPWCSPRP,-0.348
24,RRIRSRPPRLPRPRPRPMCPPRP,-0.0743
25,RRIRHRPPRLPRPRPRPLNLPRP,0.00301

row,Sequence,shrunken log2 fold change
1,RRIRGRPPRLPRPRPRPCTFPRP,0.0341
2,RRIRERPPRLPRPRPRPDAEPRP,0.36
3,RRIRPRPPRLPRPRPRPPHFPRP,0.646
4,RRIRTRPPRLPRPRPRPPSTPRP,0.186
5,RRIRSRPPRLPRPRPRPKAAPRP,0.252
6,RRIRNRPPRLPRPRPRPPPMPRP,0.678
7,RRIRHRPPRLPRPRPRPYTHPRP,-1.46
8,RRIRERPPRLPRPRPRPHALPRP,-0.236
9,RRIRPRPPRLPRPRPRPKIWPRP,0.407
10,RRIRARPPRLPRPRPRPSPQPRP,0.554
11,RRIRERPPRLPRPRPRPNQVPRP,-0.0305
12,RRIRDRPPRLPRPRPRPMMSPRP,-0.0107
13,RRIRHRPPRLPRPRPRPMDSPRP,-0.00141
14,RRIRLRPPRLPRPRPRPVSWPRP,0.22
15,RRIRTRPPRLPRPRPRPIQDPRP,-0.867
16,RRIRSRPPRLPRPRPRPCGLPRP,0.00512
17,RRIRMRPPRLPRPRPRPPTQPRP,0.785
18,RRIRNRPPRLPRPRPRPANNPRP,-0.0944
19,RRIRERPPRLPRPRPRPSGHPRP,-0.289
20,RRIRDRPPRLPRPRPRPDSIPRP,0.0726
21,RRIRARPPRLPRPRPRPCVSPRP,-0.0271
22,RRIRQRPPRLPRPRPRPFTCPRP,-0.158
23,RRIRYRPPRLPRPRPRPHALPRP,-0.656
24,RRIRFRPPRLPRPRPRPPPGPRP,1.34
25,RRIRPRPPRLPRPRPRPKRHPRP,0.267
